T1: Mcm4 (budding yeast, UniProt P30665 1-933)
T1 construct: Mcm4, subunit of the budding yeast MCM (Mcm2-7), expressed as an individual subunit; source: E. coli, purified
T1 sequence (looked up): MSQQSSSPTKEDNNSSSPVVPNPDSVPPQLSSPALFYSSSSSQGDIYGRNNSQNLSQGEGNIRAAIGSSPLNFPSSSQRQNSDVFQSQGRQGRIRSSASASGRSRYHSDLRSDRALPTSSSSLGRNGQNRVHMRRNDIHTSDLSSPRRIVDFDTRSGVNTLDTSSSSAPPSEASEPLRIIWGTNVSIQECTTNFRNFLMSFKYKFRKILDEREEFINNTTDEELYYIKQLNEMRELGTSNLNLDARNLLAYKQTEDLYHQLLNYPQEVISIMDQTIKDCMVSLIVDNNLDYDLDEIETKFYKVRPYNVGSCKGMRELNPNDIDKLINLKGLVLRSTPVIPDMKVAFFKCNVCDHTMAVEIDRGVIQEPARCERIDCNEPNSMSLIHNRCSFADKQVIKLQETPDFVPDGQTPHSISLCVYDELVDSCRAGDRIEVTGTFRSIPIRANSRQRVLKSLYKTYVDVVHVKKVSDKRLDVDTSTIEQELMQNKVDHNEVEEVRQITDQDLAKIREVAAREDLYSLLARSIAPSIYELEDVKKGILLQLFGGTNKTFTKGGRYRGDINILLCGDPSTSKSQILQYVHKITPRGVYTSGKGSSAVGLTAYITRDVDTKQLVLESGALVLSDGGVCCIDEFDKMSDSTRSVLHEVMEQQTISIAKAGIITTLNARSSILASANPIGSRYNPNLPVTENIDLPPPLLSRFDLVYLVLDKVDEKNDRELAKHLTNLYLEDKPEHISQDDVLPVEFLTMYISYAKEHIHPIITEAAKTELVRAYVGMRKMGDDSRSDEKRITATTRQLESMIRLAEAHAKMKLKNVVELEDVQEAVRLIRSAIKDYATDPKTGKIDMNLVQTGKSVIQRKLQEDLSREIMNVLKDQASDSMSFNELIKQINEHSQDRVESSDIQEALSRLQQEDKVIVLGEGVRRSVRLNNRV

T2: Mcm2 (budding yeast, UniProt P29469 1-868)
T2 construct: Mcm2, subunit of the budding yeast MCM (Mcm2-7), expressed as an individual subunit; source: E. coli, purified
T2 sequence (looked up): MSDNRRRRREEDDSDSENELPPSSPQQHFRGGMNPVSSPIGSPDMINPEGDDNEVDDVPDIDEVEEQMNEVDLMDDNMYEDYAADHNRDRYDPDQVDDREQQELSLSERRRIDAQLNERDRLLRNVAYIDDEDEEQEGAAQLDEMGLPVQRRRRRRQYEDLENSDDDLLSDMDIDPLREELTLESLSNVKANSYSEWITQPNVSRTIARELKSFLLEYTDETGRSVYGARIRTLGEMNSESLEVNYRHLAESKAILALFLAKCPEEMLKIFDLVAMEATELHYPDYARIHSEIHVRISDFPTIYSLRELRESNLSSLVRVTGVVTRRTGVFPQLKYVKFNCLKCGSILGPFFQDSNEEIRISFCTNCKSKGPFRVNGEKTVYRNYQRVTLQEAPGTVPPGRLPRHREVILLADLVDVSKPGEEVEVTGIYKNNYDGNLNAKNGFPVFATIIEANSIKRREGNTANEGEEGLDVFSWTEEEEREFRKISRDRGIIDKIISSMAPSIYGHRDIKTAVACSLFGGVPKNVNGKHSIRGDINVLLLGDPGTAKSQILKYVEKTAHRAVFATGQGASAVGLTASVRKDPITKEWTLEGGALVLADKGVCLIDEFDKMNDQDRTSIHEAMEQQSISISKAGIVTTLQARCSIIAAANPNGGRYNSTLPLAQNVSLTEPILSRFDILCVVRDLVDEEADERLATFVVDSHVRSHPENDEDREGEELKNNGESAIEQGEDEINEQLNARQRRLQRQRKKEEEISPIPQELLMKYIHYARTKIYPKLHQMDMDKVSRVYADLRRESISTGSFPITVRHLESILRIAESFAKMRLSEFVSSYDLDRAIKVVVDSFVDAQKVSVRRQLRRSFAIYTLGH


Columns and labels:
Details in all cases: both partners purified
[1] = molecular target: T1, Mcm4; assay: SEC; 10 μg of each Mcm subunit combined as pairs 3/7, 4/7 and 2/6, dialysed against buffer A, fractionated over Superdex 200 PC 3.2/30 in buffer A; fractions with the dimers pooled
[2] = molecular target: T3, Mcm3 (budding yeast, UniProt P24279 1-971); assay: as above
T3 construct: Mcm3, subunit of the budding yeast MCM (Mcm2-7), expressed as an individual subunit; source: E. coli, purified
T3 sequence (P24279 whole entry): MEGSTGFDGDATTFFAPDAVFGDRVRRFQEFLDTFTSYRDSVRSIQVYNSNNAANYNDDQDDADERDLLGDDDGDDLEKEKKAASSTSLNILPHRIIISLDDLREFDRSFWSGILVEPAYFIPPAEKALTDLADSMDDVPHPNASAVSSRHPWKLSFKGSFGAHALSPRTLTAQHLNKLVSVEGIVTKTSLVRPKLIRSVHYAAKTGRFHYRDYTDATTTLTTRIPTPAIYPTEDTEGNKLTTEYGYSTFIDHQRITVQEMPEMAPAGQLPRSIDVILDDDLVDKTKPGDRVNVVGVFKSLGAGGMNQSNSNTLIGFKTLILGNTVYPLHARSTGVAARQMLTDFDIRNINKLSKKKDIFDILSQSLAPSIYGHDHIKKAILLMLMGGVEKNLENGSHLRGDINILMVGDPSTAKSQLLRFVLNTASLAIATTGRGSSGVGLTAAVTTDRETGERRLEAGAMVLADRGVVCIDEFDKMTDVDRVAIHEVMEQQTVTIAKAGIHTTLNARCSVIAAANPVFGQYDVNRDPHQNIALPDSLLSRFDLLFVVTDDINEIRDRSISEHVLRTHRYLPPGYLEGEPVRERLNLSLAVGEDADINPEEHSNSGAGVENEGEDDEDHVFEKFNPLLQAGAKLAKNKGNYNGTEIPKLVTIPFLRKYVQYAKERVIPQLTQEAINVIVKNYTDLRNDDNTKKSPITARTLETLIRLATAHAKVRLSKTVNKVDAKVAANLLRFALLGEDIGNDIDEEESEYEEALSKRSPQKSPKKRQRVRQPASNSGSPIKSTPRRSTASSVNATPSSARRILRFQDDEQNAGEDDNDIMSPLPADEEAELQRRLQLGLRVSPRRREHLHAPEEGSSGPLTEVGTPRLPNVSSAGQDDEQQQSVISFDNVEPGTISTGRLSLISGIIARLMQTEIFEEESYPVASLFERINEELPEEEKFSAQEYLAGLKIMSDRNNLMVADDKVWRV

[3] = molecular target: T4, Mcm6 (budding yeast, UniProt P53091 1-1017); assay: co-IP; purified Mcm2-7 subunits (0.5 μM) individually incubated with purified Cdt1 (0.5 μM) or buffer, room temperature 60 min, buffer A/2 mM 2-mercaptoethanol; immunoprecipitation with polyclonal anti-Cdt1 antibody on protein A sepharose, 2 h at 4 °C; SDS-PAGE, Coomassie
T4 construct: Mcm6, subunit of the budding yeast MCM (Mcm2-7), expressed as an individual subunit; called Mcm6 fl and the full-length protein; also called Mcm6 fl; full-length Mcm6; source: E. coli, purified
T4 sequence (P53091 whole entry): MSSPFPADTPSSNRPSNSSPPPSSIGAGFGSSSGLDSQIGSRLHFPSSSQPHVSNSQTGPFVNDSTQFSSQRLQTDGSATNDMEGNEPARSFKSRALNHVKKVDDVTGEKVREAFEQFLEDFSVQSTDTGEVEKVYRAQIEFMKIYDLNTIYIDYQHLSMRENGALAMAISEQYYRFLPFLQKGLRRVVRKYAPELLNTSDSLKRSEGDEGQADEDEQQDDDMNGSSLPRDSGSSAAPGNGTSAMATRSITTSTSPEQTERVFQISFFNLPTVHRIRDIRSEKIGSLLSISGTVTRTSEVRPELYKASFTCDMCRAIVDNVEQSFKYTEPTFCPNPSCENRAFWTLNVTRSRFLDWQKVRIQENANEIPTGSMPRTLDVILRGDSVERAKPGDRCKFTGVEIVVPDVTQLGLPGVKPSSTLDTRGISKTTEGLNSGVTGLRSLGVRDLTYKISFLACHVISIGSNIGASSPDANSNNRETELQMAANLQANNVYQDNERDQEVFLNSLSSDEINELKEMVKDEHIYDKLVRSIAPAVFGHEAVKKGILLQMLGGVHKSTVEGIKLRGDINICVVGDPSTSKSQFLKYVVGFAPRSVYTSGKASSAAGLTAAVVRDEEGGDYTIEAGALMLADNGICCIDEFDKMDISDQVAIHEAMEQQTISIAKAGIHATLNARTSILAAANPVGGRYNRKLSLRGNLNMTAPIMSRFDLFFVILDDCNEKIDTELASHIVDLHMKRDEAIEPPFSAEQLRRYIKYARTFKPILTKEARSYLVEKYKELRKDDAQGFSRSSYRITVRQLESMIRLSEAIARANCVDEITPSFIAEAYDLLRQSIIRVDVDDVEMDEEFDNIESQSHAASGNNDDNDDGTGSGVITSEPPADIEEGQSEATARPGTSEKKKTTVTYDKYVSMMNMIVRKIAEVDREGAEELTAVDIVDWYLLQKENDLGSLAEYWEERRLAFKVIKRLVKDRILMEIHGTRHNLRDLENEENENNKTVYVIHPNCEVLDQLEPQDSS

[4] = molecular target: T5, Mcm6 within purified Cdt1–MCM complexes (budding yeast, UniProt P53091 1-1017); assay: negative-stain electron microscopy; single-particle EM of the Cdt1-MCM complex, apo and with ATPγS, 2% uranyl formate; 3D reconstruction (20.4 and 18.0 Å) with docking of MCM atomic structures and of the Cdt1 NM crystal structure
T5 construct: Mcm6, yeast MCM subunit, as part of the Cdt1-MCM complex; source: purified Cdt1-MCM complex
T5 sequence (P53091 whole entry, one chain of several): as the sequence (P53091 whole entry) above

[5] = molecular target: T6, Mcm6 tagged with GFP-FLAG, within an MCM-GFP,FLAG–Cdt1 complex (budding yeast, UniProt P53091 1-1017); assay: cross-linking; MCM-GFP,FLAG-Cdt1 complexes (20 μg) crosslinked with 25 μM BS3, 30 min room temperature, buffer B; denatured with SDS; immunoprecipitation with anti-FLAG beads under denaturing conditions; western blot against Cdt1
T6 construct: Mcm6, budding yeast MCM subunit; also called Mcm6-GFP-FLAG; source: purified MCM-GFP,FLAG-Cdt1 complex; not shown: GFP, C-terminal, kept; FLAG, C-terminal, kept
T6 sequence (P53091 whole entry, one chain of several): as the sequence (P53091 whole entry) above

[6] = molecular target: T4, Mcm6; assay: pull-down; Cdt1-His-SUMO fragments held on Ni-NTA magnetic beads, Mcm2 or Mcm6 in solution; 10 μg of each protein, buffer B (25 mM Hepes-KOH pH 7.6, 0.02% NP-40, 10% glycerol, 0.1 M K glutamate), 60 min at 4 °C; Coomassie
[7] = molecular target: T2, Mcm2; assay: as above

| Binder | binding result [6] | binding result [7] | also measured |
| --- | --- | --- | --- |
| Mcm7 (natural protein, budding yeast, UniProt P38132 1-845, looked up, Mcm7, subunit of the budding yeast MCM (Mcm2-7), expressed as an individual subunit; source: E. coli, purified) MSAALPSIQLPVDYNNLFNEITDFLVTFKQDTLSSDATRNENEDENLDAENIEQHLLEKGPKYMAMLQKVANRELNSVIIDLDDILQYQNEKFLQGTQADDLVSAIQQNANHFTELFCRAIDNNMPLPTKEIDYKDDVLDVILNQRRLRNERMLSDRTNEIRSENLMDTTMDPPSSMNDALREVVEDETELFPPNLTRRYFLYFKPLSQNCARRYRKKAISSKPLSVRQIKGDFLGQLITVRGIITRVSDVKPAVEVIAYTCDQCGYEVFQEVNSRTFTPLSECTSEECSQNQTKGQLFMSTRASKFSAFQECKIQELSQQVPVGHIPRSLNIHVNGTLVRSLSPGDIVDVTGIFLPAPYTGFKALKAGLLTETYLEAQFVRQHKKKFASFSLTSDVEERVMELITSGDVYNRLAKSIAPEIYGNLDVKKALLLLLVGGVDKRVGDGMKIRGDINVCLMGDPGVAKSQLLKAICKISPRGVYTTGKGSSGVGLTAAVMKDPVTDEMILEGGALVLADNGICCIDEFDKMDESDRTAIHEVMEQQTISISKAGINTTLNARTSILAAANPLYGRYNPRLSPLDNINLPAALLSRFDILFLMLDIPSRDDDEKLAEHVTYVHMHNKQPDLDFTPVEPSKMREYIAYAKTKRPVMSEAVNDYVVQAYIRLRQDSKREMDSKFSFGQATPRTLLGIIRLSQALAKLRLADMVDIDDVEEALRLVRVSKESLYQETNKSKEDESPTTKIFTIIKKMLQETGKNTLSYENIVKTVRLRGFTMLQLSNCIQEYSYLNVWHLINEGNTLKFVDDGTMDTDQEDSLVSTPKLAPQTTASANVSAQDSDIDLQDA |  |  | binding result [1]: binds; binding result [2]: binds |
| Cdt1 (natural protein, S. cerevisiae, UniProt P47112 1-604, looked up, Cdt1, S. cerevisiae; also called Cdt1 WT; wild-type Cdt1; source: recombinant, purified) MSGTANSRRKEVLRVPVIDLNRVSDEEQLLPVVRAILLQHDTFLLKNYANKAVLDALLAGLTTKDLPDTSQGFDANFTGTLPLEDDVWLEQYIFDTDPQLRFDRKCRNESLCSIYSRLFKLGLFFAQLCVKSVVSSAELQDCISTSHYATKLTRYFNDNGSTHDGADAGATVLPTGDDFQYLFERDYVTFLPTGVLTIFPCAKAIRYKPSTMATTDNSWVSIDEPDCLLFHTGTLLARWSQGMHTTSPLQIDPRANIVSLTIWPPLTTPISSKGEGTIANHLLEQQIKAFPKVAQQYYPRELSILRLQDAMKFVKELFTVCETVLSLNALSRSTGVPPELHVLLPQISSMMKRKIVQDDILKLLTIWSDAYVVELNSRGELTMNLPKRDNLTTLTNKSRTLAFVERAESWYQQVIASKDEIMTDVPAFKINKRRSSSNSKTVLSSKVQTKSSNANALNNSRYLANSKENFMYKEKMPDSQANLMDRLRERERRSAALLSQRQKRYQQFLAMKMTQVFDILFSLTRGQPYTETYLSSLIVDSLQDSNNPIGTKEASEILAGLQGILPMDISVHQVDGGLKVYRWNSLDKNRFSKLLQIHKSKQQD |  |  | binding result [3]: binds |
| Cdt1 within purified Cdt1–MCM complexes (natural protein, S. cerevisiae, UniProt P47112 1-604, looked up, also called Cdt1 (in MCM-GFP,FLAG–Cdt1 complexes and in the Cdt1–MCM complex used for electron microscopy); source: purified Cdt1-MCM complex) MSGTANSRRKEVLRVPVIDLNRVSDEEQLLPVVRAILLQHDTFLLKNYANKAVLDALLAGLTTKDLPDTSQGFDANFTGTLPLEDDVWLEQYIFDTDPQLRFDRKCRNESLCSIYSRLFKLGLFFAQLCVKSVVSSAELQDCISTSHYATKLTRYFNDNGSTHDGADAGATVLPTGDDFQYLFERDYVTFLPTGVLTIFPCAKAIRYKPSTMATTDNSWVSIDEPDCLLFHTGTLLARWSQGMHTTSPLQIDPRANIVSLTIWPPLTTPISSKGEGTIANHLLEQQIKAFPKVAQQYYPRELSILRLQDAMKFVKELFTVCETVLSLNALSRSTGVPPELHVLLPQISSMMKRKIVQDDILKLLTIWSDAYVVELNSRGELTMNLPKRDNLTTLTNKSRTLAFVERAESWYQQVIASKDEIMTDVPAFKINKRRSSSNSKTVLSSKVQTKSSNANALNNSRYLANSKENFMYKEKMPDSQANLMDRLRERERRSAALLSQRQKRYQQFLAMKMTQVFDILFSLTRGQPYTETYLSSLIVDSLQDSNNPIGTKEASEILAGLQGILPMDISVHQVDGGLKVYRWNSLDKNRFSKLLQIHKSKQQD |  |  | binding result [4]: binds; binding result [5]: binds |

Second part, led by results:

| binding result [6] | binding result [7] | Binder | also measured |
| --- | --- | --- | --- |
| binds | binds | Cdt1 fragment 271–496 fused to His-SUMO (domain or fragment, S. cerevisiae, UniProt P47112 271-496, looked up, source: His-SUMO fusion) SSKGEGTIANHLLEQQIKAFPKVAQQYYPRELSILRLQDAMKFVKELFTVCETVLSLNALSRSTGVPPELHVLLPQISSMMKRKIVQDDILKLLTIWSDAYVVELNSRGELTMNLPKRDNLTTLTNKSRTLAFVERAESWYQQVIASKDEIMTDVPAFKINKRRSSSNSKTVLSSKVQTKSSNANALNNSRYLANSKENFMYKEKMPDSQANLMDRLRERERRSAA |  |
| binds | binds | Cdt1 fragment 495–604 fused to His-SUMO (domain or fragment, S. cerevisiae, UniProt P47112 495-604, looked up, assigned by the order of description; The crystallised protein had the tag removed; also called CTD; source: His-SUMO fusion; E. coli is told for the crystallised fragment of the same limits) AALLSQRQKRYQQFLAMKMTQVFDILFSLTRGQPYTETYLSSLIVDSLQDSNNPIGTKEASEILAGLQGILPMDISVHQVDGGLKVYRWNSLDKNRFSKLLQIHKSKQQD |  |
| binds | binds | Cdt1-MC fused to His-SUMO (domain or fragment, S. cerevisiae, UniProt P47112 272-604, looked up, source: His-SUMO fusion) SKGEGTIANHLLEQQIKAFPKVAQQYYPRELSILRLQDAMKFVKELFTVCETVLSLNALSRSTGVPPELHVLLPQISSMMKRKIVQDDILKLLTIWSDAYVVELNSRGELTMNLPKRDNLTTLTNKSRTLAFVERAESWYQQVIASKDEIMTDVPAFKINKRRSSSNSKTVLSSKVQTKSSNANALNNSRYLANSKENFMYKEKMPDSQANLMDRLRERERRSAALLSQRQKRYQQFLAMKMTQVFDILFSLTRGQPYTETYLSSLIVDSLQDSNNPIGTKEASEILAGLQGILPMDISVHQVDGGLKVYRWNSLDKNRFSKLLQIHKSKQQD |  |
